Test results as given in patent US20120316071A1 (published 2012).

Legend:
[1] = biological target: T1, rHuman ErbB2/Fc Chimera, CF (R&D Systems Cat#1129-ER) (human, UniProt P04626 23-652); experiment: ECL multispot (MSD), antigen spotted on plate, Fab at 500.00 (column head: Fab [µM])
T1 construct: Bought recombinant protein; Fc part of the bought chimera not given

[2] = biological target: T2, rHuman Erythropoietin R/Fc Chimera, CF (R&D Systems Cat#963-ER) (human, UniProt P19235 25-250); experiment: as above
T2 construct: Bought recombinant protein; also called EPO R; EPO R/Fc; Fc part of the bought chimera not given
T2 sequence (looked up): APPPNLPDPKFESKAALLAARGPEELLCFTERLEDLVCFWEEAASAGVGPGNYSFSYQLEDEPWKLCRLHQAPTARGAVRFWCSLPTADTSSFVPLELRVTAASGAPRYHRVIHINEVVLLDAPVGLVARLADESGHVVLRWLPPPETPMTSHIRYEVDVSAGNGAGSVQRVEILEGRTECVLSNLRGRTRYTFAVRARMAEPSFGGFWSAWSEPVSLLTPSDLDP

[3] = biological target: T3, Recombinant Human DLL4 (R&D Systems Cat#1506-D4/CF) (human, UniProt Q9NR61 27-524); experiment: as above
T3 construct: Bought recombinant protein; also called delta-like protein 4; rHuman DLL4

[4] = biological target: T4, rHuman CD44/Fc Chimera, CF (R&D Systems Cat#3660-CD) (human, UniProt P16070 21-220); experiment: as above
T4 construct: Bought recombinant protein; Fc part of the bought chimera not given

[5] = biological target: T5, rHuman Notch-1/Fc Chimera, CF (R&D Systems Cat#3647-TK) (human, UniProt P46531 19-526); experiment: as above
T5 construct: Bought recombinant chimera; Fc part of the bought chimera not given

[6] = biological target: T6, rHuman IGF-1 sR (insulin-like growth factor-1 soluble receptor), CF (R&D Systems Cat#391-GR) (human, UniProt P08069 31-932); experiment: as above
T6 construct: Bought recombinant soluble receptor

[7] = biological target: T7, rHuman P-Cadherin/Fc Chimera, CF (R&D Systems Cat#861-PC) (human, UniProt P22223 108-654); experiment: as above
T7 construct: Bought recombinant protein; Fc part of the bought chimera not given

[8] = biological target: T8, rHuman EGF R/Fc Chimera, CF (R&D Systems Cat#344-ER) (human, UniProt P00533 25-645); experiment: as above
T8 construct: Bought recombinant protein; Fc part of the bought chimera not given

[9] = biological target: T9, rHuman HGF R/c-MET/Fc Chimera, CF (R&D Systems Cat#358-MT/CF) (human, UniProt P08581 25-932); experiment: as above
T9 construct: Bought recombinant protein; also called HGF R/Fc; Fc part of the bought chimera not given
T9 sequence (P08581 25-932, change not shown): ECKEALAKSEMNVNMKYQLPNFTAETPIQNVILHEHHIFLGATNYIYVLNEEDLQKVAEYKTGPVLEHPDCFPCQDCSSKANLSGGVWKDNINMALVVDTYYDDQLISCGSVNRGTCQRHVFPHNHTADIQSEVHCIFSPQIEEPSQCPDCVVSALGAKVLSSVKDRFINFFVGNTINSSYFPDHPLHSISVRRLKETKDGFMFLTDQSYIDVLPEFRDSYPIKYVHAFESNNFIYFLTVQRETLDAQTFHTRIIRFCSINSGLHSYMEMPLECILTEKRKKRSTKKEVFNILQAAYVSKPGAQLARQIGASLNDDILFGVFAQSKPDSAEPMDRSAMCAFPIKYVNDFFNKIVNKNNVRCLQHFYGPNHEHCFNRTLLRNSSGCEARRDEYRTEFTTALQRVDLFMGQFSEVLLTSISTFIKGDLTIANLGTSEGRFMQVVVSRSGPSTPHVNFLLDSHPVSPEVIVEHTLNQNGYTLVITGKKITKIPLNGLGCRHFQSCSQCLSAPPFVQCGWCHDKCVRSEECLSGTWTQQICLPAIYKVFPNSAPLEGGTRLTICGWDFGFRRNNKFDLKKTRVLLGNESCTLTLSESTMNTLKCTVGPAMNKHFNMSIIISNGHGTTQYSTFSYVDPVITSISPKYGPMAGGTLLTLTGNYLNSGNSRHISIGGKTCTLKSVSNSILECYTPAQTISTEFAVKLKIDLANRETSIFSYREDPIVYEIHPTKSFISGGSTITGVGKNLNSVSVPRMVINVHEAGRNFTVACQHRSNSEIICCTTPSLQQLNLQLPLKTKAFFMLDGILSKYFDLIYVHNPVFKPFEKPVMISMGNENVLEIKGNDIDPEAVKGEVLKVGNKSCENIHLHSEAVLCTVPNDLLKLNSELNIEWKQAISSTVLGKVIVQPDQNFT

[10] = biological target: T1, rHuman ErbB2/Fc Chimera, CF (R&D …); experiment: ECL multispot (MSD), antigen spotted on plate, Fab at 0.50 (column head: Fab [µM])
[11] = biological target: T2, rHuman Erythropoietin R/Fc Chimera, CF …; experiment: as above
[12] = biological target: T3, Recombinant Human DLL4 (R&D Systems …); experiment: as above
[13] = biological target: T4, rHuman CD44/Fc Chimera, CF (R&D Systems …); experiment: as above
[14] = biological target: T5, rHuman Notch-1/Fc Chimera, CF (R&D …); experiment: as above
[15] = biological target: T6, rHuman IGF-1 sR (insulin-like growth …); experiment: as above
[16] = biological target: T7, rHuman P-Cadherin/Fc Chimera, CF (R&D …); experiment: as above
[17] = biological target: T8, rHuman EGF R/Fc Chimera, CF (R&D …); experiment: as above
[18] = biological target: T9, rHuman HGF R/c-MET/Fc Chimera, CF (R&D …); experiment: as above
[19] = biological target: T5, rHuman Notch-1/Fc Chimera, CF (R&D …); experiment: ECL multispot (MSD), antigen spotted on plate, Fab at 50.00 (column head: Fab [µM])

Row | Binder | signal/noise ratio (ECL) [1] | signal/noise ratio (ECL) [2] | signal/noise ratio (ECL) [3] | signal/noise ratio (ECL) [4] | signal/noise ratio (ECL) [5] | signal/noise ratio (ECL) [6] | signal/noise ratio (ECL) [7] | signal/noise ratio (ECL) [8] | signal/noise ratio (ECL) [9] | signal/noise ratio (ECL) [10] | signal/noise ratio (ECL) [11] | signal/noise ratio (ECL) [12] | signal/noise ratio (ECL) [13] | signal/noise ratio (ECL) [14] | signal/noise ratio (ECL) [15] | signal/noise ratio (ECL) [16] | signal/noise ratio (ECL) [17] | signal/noise ratio (ECL) [18] | signal/noise ratio (ECL) [19]
1 | Fab VH1-46_IGHD6-6*01_IGHJ1*01 & L6_IGKJ1*01 (Fab, V domains shown, Tested as a Fab expressed in E. coli; The heavy chain came from Plasmid A (CH1 with His6 and Flag tags) and the kappa light chain from Plasmid C (kappa CL); also called Wt; wildtype) VH: QVQLVQSGAEVKKPGASVKVSCKASGYTFTSYYMHWVRQAPGQGLEWMGIINPSGGSTSYAQKFQGRVTMTRDTSTSTVYMELSSLRSEDTAVYYCAREEYSSSSAEYFQHWGQGTLVTVSS VL: not shown | 0.3 | 0.8 | 16.2 | 0.4 | 0.8 | 0.4 | 0.2 | 0.7 | 0.3 | 1 | 0.9 | 2.9 | 1 | 2 | 1.2 | 1.3 | 1.4 | 0.6 | 0.6
2 | Fab VH1-46_IGHD6-6*01_IGHJ1*01 S102A/S103P/S104F (APF) & L6_IGKJ1*01 (Fab, V domains shown, Tested as a Fab expressed in E. coli; the constant parts (CH1 with His6/Flag tags, kappa CL) come from Plasmids A and C; also called APF triple mutant; H:APF & L:wt) VH: QVQLVQSGAEVKKPGASVKVSCKASGYTFTSYYMHWVRQAPGQGLEWMGIINPSGGSTSYAQKFQGRVTMTRDTSTSTVYMELSSLRSEDTAVYYCAREEYAPFSAEYFQHWGQGTLVTVSS VL: not shown | 1.7 | 10.4 | 181 | 2.4 | 4.2 | 1.5 | 3.4 | 5.5 | 2.2 | 1 | 0.9 | 34.5 | 1 | 1.4 | 1.3 | 0.8 | 1.1 | 0.8 | 1.1
